Consider 3 molecules from doi:10.1101/2022.07.01.498528 (bioRxiv, 2022).

For test [1], the target named is VIM-4 β-lactamase (class B) (Pseudomonas aeruginosa, VIM-4, UniProt Q8KRJ3, strain). The test is described as follows: BLI. (BLI is a label-free optical method that tracks binding on a fibre tip over time.)
Test [2] deals with AmpC P99 of Enterobacter cloacae (class C β-lactamase) (Enterobacter cloacae P99, UniProt P05364). Put plainly: BLI.
For test [3], the target named is OXA-48 β-lactamase (class D) (Klebsiella pneumoniae, OXA-48, UniProt Q6XEC0). Put plainly: BLI.
For test [4], the target named is TEM-1 β-lactamase (class A) (Escherichia coli (assumed), TEM-1, UniProt P62593). The test is described as follows: BLI.
Test [5] has as its target CMY-1 β-lactamase (class C) (Klebsiella pneumoniae, CMY-1, UniProt P71420, strain). The test is described as follows: BLI.
In test [6] the target is CMY-60 β-lactamase (Escherichia coli entry (host isolate …, UniProt G3F7G8, strain)). Put plainly: ELISA.
Test [7] addresses CMY-16 β-lactamase (Proteus mirabilis entry (host isolate …, UniProt Q4LCT4, strain)). The test is described as follows: ELISA. On the technique in general: ELISA stands for enzyme-linked immunosorbent assay.
The target of test [8] is CMY-42 β-lactamase (Escherichia coli entry (host isolate …, UniProt F4YXC2, strain)). The test is described as follows: ELISA.
For test [9], the target named is CMY-61 β-lactamase (Escherichia coli entry (host isolate …, UniProt G3F7G9, strain)). Put plainly: ELISA.
Test [10] addresses CMY-58 β-lactamase (Escherichia coli entry (host isolate …, UniProt F1C3E3, strain)). Put plainly: ELISA.

Chain of TEM-1 β-lactamase (class A) (P62593 24-286): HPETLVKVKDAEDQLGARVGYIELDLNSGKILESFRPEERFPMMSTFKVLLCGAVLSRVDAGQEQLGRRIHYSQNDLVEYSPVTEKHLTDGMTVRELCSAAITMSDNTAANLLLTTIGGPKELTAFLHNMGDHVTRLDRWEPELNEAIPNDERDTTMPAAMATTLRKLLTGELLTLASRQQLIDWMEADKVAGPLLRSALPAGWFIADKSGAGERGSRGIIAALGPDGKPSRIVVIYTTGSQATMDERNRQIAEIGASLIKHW
Chain of OXA-48 β-lactamase (class D) (Q6XEC0 23-265): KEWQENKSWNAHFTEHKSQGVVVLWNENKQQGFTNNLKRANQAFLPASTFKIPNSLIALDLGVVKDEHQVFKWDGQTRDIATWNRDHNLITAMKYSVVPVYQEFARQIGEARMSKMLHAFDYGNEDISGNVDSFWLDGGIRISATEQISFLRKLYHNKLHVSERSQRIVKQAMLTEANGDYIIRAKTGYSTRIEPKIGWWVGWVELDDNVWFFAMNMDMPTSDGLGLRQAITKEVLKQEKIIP
Chain of AmpC P99 of Enterobacter cloacae (class C β-lactamase) (P05364 21-381): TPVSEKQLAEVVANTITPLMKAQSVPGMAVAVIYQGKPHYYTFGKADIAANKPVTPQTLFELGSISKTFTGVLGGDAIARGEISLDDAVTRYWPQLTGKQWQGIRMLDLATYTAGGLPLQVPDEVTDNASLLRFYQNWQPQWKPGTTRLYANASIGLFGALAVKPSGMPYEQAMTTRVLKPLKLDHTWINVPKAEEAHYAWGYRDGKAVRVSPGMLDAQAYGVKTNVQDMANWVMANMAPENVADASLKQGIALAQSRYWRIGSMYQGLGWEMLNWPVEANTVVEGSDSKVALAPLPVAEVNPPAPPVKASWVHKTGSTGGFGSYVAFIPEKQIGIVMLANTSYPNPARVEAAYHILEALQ

B1: VHH cAb_(CMY-2)(254) (VHH)
VHH: QVQLVESGGGMVQPGGSLRLSCAASGFTFSNYDMSWVRRAPGKGPEWVSTINTGGGSTSYADSVKGRFTISRDNAKNTLYLQMNSLKPEDTALYYCTIDRGLHYSDLGEYDYWGQGTQVTVSS
Turning to B1, the binding result is “no binding (tested: 500 nM)” in test [1]; “no binding (tested: 500 nM)” in [2]; “no binding (tested: 500 nM)” in [3]; “no binding (tested: 500 nM)” in test [4]; “no binding (tested: 500 nM)” in test [5]; “binds” in test [6]. Further, the binding result in [7], in test [8], in test [9] and in test [10] was “binds” throughout.

B2: VHH cAb_(CMY-2)(250) (VHH)
VHH: QVQLVESGGGLVQPGGSLRLSCAASGSIFSIYGMGWYRQAPGKQRELVAEITSGGSTNYADSVKGRFTISRDNAKNTVYLQMNSLNPEDTAVYYCNADGTMWGAGDYWGQGTQVTVSS
As to B2, the binding result in [1] was “no binding (tested: 500 nM)”; in [2], “binds”; in [3], “no binding (tested: 500 nM)”; in [4], “no binding (tested: 500 nM)”.

B3: VHH cAb_(CMY-2)(272) (VHH)
VHH: QVQLVESGGGLVQPGGSLRLSCAASGSIFMIYAMGWYRQAPGKQRELVADITSGGSTDYTDSVKGRFTISRDKNTVYLQMNSLKPEDTAVYYCNADHGPGFGYDYWGQGTQVTVSS
Take B3: the binding result in test [1], in test [2], in test [3], in test [4] and in test [5] was “no binding (tested: 500 nM)” throughout.
